Experimental data published in patent publication WO2001079494A1.

B1: 12B5 antibody (IgG) (antibody, from another filing)
scFv: QVQLVQSGGGLVRPGGSLSLSCAVSGITLRTYGMHWVRQAPGKGLEWVAGISFDGRSEYYADSVQGRFTISRDSSKNTLYLQMNSLRAEDTAVYYCARGAHYGFDIWGQGTMVTVSSGGGGTGGGGSGGGGSDIQMTQSPSTLSASIGDRVTITCRASEGIYHWLAWYQQKPGKAPKLLIYKASSLASGAPSRFSGSGSGTDFTLTISSLQPDDFATYYCQQYSNYPLTFGGGTKLEIK
B2: 12B5 Fab (Fab, from another filing)
scFv: B1 scFv

Biological target: human TPO receptor (MPL) expressed on Ba/F3 cells (human) (UniProt P40238)
Experiment: cell-based or functional assay

Binder | ED50, proliferation of BaF/Mpl cells (WST-8) [µM]
B1 | 0.029
B2 | 34.7
